Experimental data reported in patent publication US20140087995A1 (published 2014).
Numbered stars: 1 amine (or outer) side, 2 acyl side, 3 side chain; on linkers, the order of the positions; unused ones are H or OH. Bridge positions count the residues as written; N and C are the ends. Side chains are listed from the residue outwards. Ends that are not written are not given here. * marks the point of attachment. C20 diacid = O=C(O)CCCCCCCCCCCCCCCCCCC(=O)*; γGlu = O=C(O)[C@H](CCC(=O)[*:2])N[*:1]; AEEA = NCCOCCOCC(=O)O

T1: human amylin receptor (amylin 3(a) receptor: human calcitonin receptor co-expressed with RAMP-3) (human, UniProt P30988 25-474; O60896 24-148, limits assumed)
T1 sequence (looked up) 1: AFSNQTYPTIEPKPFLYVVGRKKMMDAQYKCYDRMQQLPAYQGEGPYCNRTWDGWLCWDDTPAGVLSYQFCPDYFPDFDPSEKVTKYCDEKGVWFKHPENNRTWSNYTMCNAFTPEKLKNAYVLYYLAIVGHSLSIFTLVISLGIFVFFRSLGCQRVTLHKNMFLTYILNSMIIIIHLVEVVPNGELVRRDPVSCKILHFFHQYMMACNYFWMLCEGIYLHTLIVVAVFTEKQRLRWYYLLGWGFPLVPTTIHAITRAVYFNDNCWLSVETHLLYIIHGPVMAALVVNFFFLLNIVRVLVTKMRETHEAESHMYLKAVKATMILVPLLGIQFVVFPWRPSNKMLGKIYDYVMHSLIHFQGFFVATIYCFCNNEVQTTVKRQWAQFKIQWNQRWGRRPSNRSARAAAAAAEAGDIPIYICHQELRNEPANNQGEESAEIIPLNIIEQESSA
T1 sequence (looked up) 2: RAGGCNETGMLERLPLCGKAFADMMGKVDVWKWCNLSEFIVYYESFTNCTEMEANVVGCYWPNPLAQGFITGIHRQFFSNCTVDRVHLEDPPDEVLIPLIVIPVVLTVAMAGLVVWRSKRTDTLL

T2: human calcitonin receptor (human, UniProt P30988 25-474)
T2 sequence (looked up): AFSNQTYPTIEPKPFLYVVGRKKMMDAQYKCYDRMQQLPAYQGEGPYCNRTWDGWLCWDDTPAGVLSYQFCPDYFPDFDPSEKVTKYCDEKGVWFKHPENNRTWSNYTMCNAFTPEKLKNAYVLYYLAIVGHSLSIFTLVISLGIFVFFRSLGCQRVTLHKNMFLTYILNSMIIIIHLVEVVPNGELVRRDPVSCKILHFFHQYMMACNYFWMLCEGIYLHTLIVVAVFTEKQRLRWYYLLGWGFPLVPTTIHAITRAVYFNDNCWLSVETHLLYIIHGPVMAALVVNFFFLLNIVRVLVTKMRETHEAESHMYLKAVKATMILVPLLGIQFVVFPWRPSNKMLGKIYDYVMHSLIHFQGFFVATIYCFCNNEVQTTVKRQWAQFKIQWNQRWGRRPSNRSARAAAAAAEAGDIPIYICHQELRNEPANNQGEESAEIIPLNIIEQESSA


Assays:
[1] = target: T1, human amylin receptor (amylin 3(a) …); test: cell-based or functional assay
[2] = target: T2, human calcitonin receptor; test: cell-based or functional assay

hAmylin-R funct. EC50 [1] | hCTR funct. EC50 [2] | Ratio hCT/hAmylin funct. [1] | Binder
56 pM | 527 pM | – | K([AEEA-γGlu-C20 diacid])CNTATCATQRLAGFLRHSSPNFGAIPSSTPVGSNTY-NH2 (disulfide 2-7; N-terminus assumed; SMILES CC[C@H](C)[C@H](NC(=O)[C@H](C)NC(=O)CNC(=O)[C@H](Cc1ccccc1)NC(=O)[C@H](CC(N)=O)NC(=O)[C@@H]1CCCN1C(=O)[C@H](CO)NC(=O)[C@H](CO)NC(=O)[C@H](Cc1c[nH]cn1)NC(=O)[C@H](CCCNC(=N)N)NC(=O)[C@H](CC(C)C)NC(=O)[C@H](Cc1ccccc1)NC(=O)CNC(=O)[C@H](C)NC(=O)[C@H](CC(C)C)NC(=O)[C@H](CCCNC(=N)N)NC(=O)[C@H](CCC(N)=O)NC(=O)[C@@H](NC(=O)[C@H](C)NC(=O)[C@@H]1CSSC[C@H](NC(=O)[C@@H](N)CCCCNC(=O)COCCOCCNC(=O)CC[C@H](NC(=O)CCCCCCCCCCCCCCCCCCC(=O)O)C(=O)O)C(=O)N[C@@H](CC(N)=O)C(=O)N[C@@H]([C@@H](C)O)C(=O)N[C@@H](C)C(=O)N[C@@H]([C@@H](C)O)C(=O)N1)[C@@H](C)O)C(=O)N1CCC[C@H]1C(=O)N[C@@H](CO)C(=O)N[C@@H](CO)C(=O)N[C@H](C(=O)N1CCC[C@H]1C(=O)N[C@H](C(=O)NCC(=O)N[C@@H](CO)C(=O)N[C@@H](CC(N)=O)C(=O)N[C@H](C(=O)N[C@@H](Cc1ccc(O)cc1)C(N)=O)[C@@H](C)O)C(C)C)[C@@H](C)O, also called compound 71)
169 pM | 5490 pM | 32.5 | K([AEEA-γGlu-C20 diacid])CNTATCATQRLAHFLRHSSPNFGAIPSSTNVGRNTY-NH2 (disulfide 2-7; N-terminus assumed; SMILES CC[C@H](C)[C@H](NC(=O)[C@H](C)NC(=O)CNC(=O)[C@H](Cc1ccccc1)NC(=O)[C@H](CC(N)=O)NC(=O)[C@@H]1CCCN1C(=O)[C@H](CO)NC(=O)[C@H](CO)NC(=O)[C@H](Cc1c[nH]cn1)NC(=O)[C@H](CCCNC(=N)N)NC(=O)[C@H](CC(C)C)NC(=O)[C@H](Cc1ccccc1)NC(=O)[C@H](Cc1c[nH]cn1)NC(=O)[C@H](C)NC(=O)[C@H](CC(C)C)NC(=O)[C@H](CCCNC(=N)N)NC(=O)[C@H](CCC(N)=O)NC(=O)[C@@H](NC(=O)[C@H](C)NC(=O)[C@@H]1CSSC[C@H](NC(=O)[C@@H](N)CCCCNC(=O)COCCOCCNC(=O)CC[C@H](NC(=O)CCCCCCCCCCCCCCCCCCC(=O)O)C(=O)O)C(=O)N[C@@H](CC(N)=O)C(=O)N[C@@H]([C@@H](C)O)C(=O)N[C@@H](C)C(=O)N[C@@H]([C@@H](C)O)C(=O)N1)[C@@H](C)O)C(=O)N1CCC[C@H]1C(=O)N[C@@H](CO)C(=O)N[C@@H](CO)C(=O)N[C@H](C(=O)N[C@@H](CC(N)=O)C(=O)N[C@H](C(=O)NCC(=O)N[C@@H](CCCNC(=N)N)C(=O)N[C@@H](CC(N)=O)C(=O)N[C@H](C(=O)N[C@@H](Cc1ccc(O)cc1)C(N)=O)[C@@H](C)O)C(C)C)[C@@H](C)O, also called compound 84)
